Values quoted from earlier work in patent US6632836B1, “Carbocyclic potassium channel inhibitors” (Merck & Co., Inc., priority 1998, dated 2003).

Molecular target: T1, Kv1.3 channels (Homo sapiens, UniProt P22001)
T1 construct: expressed in transfected cells; host or cells: CHO cells
Settings: reference blocker used at saturating concentration to establish the efflux window; read-out: IC50 as blocker of Kv1.3 channels

T1 sequence (P22001 whole entry): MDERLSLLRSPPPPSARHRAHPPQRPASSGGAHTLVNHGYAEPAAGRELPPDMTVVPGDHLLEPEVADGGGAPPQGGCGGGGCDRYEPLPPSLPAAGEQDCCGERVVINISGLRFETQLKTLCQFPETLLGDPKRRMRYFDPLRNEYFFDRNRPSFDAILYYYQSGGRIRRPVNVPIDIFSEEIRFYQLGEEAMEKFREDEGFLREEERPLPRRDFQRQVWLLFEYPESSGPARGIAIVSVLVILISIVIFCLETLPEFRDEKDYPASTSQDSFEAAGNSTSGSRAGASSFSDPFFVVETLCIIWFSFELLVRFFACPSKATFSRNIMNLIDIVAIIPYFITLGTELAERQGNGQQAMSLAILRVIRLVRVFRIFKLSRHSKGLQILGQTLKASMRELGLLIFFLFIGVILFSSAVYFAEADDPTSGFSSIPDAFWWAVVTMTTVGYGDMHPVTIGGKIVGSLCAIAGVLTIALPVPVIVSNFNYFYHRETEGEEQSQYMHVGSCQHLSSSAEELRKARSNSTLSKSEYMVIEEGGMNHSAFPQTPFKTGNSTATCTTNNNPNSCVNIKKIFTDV

Which IC50 does the source give for “margatoxin (TIINVKCTSPKQCLPPCKAQFGQSAGAKCMNGKCKCYPH; UniProt P40755 1-39, looked up)” here?
The IC50 was 0.1 nM.
